Two molecules from patent US20170240635A1 (AGENCY FOR SCIENCE TECHNOLOGY AND RESEARCH, published 2017) can be followed below.

In assay [1] the target is T1, PD-1 on exhausted human T cells (human, UniProt Q15116 25-288).
T1 construct: whole, on cells; T cells exhausted by 7 days of culture with allogeneic monocyte-derived dendritic cells
In words: flow cytometry (MFI); IgG4 on human T cells activated 7 days with allogeneic DCs, fluorescent secondary antibody. As for the experimental part:
(§1) 50,000 T cells isolated from a healthy donor were incubated in the presence of 5,000 monocyte-derived DCs from another donor for 7 days at 37° C. Antibodies, expressed as IgG4, were incubated with such activated T cells for 30 minutes in PBS. After a wash in PBS, a fluorescent labelled secondary antibody was added for 30 minutes and then washed in PBS. Cells were resuspended in FACS buffer and binding of the antibody to the cells was monitored by flow cytometry (FIGS. 6 and 7).
In general terms: A flow cytometer gives signals particle by particle.

The target of assay [2] is T1, PD-1 on exhausted human T cells. Described as above. How it is done: as §1
This is another data set of the same source.

For orientation: EC50 means the concentration at which the effect is half-maximal. The low end stands for a more potent agent, the high end for a less potent agent.

Where a chain is given by its changes, count along the chain named. Where two headings read alike, the source gives them in different places.

T1 sequence (Q15116 25-288): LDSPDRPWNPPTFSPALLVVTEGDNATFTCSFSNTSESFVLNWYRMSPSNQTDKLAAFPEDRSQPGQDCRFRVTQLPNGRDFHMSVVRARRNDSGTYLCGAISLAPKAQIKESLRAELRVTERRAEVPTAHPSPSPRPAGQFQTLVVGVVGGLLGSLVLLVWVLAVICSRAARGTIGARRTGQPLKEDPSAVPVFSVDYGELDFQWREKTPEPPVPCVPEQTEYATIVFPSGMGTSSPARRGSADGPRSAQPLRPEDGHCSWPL

B1: A3-IgG4 (antibody, V domains shown)
VH: QVQLVQSGGGVVQPGRSLRLSCAASGFTFSSYGMHWVRQAPGKGLEWVAVISYDGSNKYYADSVKGRFTISRDNSKNTLYLQMNSLRAEDTAVYYCASDLGAGPYYYGKDHWGQGTTVTVSS
VL: LPVLTQPPSASGTPGQRVTISCSGSSSNIKFNSVNWYQQLPGTAPKLLIYSNNQRPSGVPDRFSGSKSGTSASLAISGLQSEDEADYFCASWDDVLYGSVFGGGTKLTVL
notes: also called anti-PD-1 antibody clone A3 (human IgG4)
Consider B1, for which, in assay [1], the response was half-maximal at 0.855 nM (EC50).

B2: A10-IgG4 (antibody, V domains shown)
VH: B1 VH with H111V
VL: B1 VL with V95Y, L96Y, S99T, V100I
notes: also called anti-PD-1 antibody clone A10 (human IgG4)
With B2, the values for the EC50 in assay [2] and in assay [1] were 0.253 nM and 0.262 nM, respectively.
